Measured values published in the supplement of paper PMC9112550, “Optimization of the antimicrobial peptide Bac7 by deep mutational scanning” (BMC Biology, 2022).

Test system: Escherichia coli TOP10
Experiment: shrunken log2 fold change of peptide-encoding DNA abundance (4.5 h post-induction vs induction); higher = less antimicrobial activity (less host growth inhibition)
Conditions: time post-induction: 4.5 h; library: site-saturation at positions 5, 18, 19, 20
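Further: peptides expressed intracellularly from a pBAD plasmid library in pooled LB shake-flask culture, induced with 0.3% L-arabinose, DNA abundance read by NGS, three biological replicates, DESeq2 with apeglm shrinkage.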

Row | Sequence | shrunken log2 fold change
1 | RRIRGRPPRLPRPRPRPWFWPRP | 0.6
2 | RRIRPRPPRLPRPRPRPRCCPRP | 0.119
3 | RRIRMRPPRLPRPRPRPCQPPRP | -0.0351
4 | RRIRHRPPRLPRPRPRPELRPRP | 0.0303
5 | RRIRRRPPRLPRPRPRPEHYPRP | 0.0555
6 | RRIRKRPPRLPRPRPRPVVSPRP | -0.292
7 | RRIRGRPPRLPRPRPRPASPPRP | 0.323
8 | RRIRKRPPRLPRPRPRPPTQPRP | 0.301
9 | RRIRCRPPRLPRPRPRPLAIPRP | -0.0224
10 | RRIRERPPRLPRPRPRPPWQPRP | 0.0988
11 | RRIRCRPPRLPRPRPRPMMWPRP | -0.137
12 | RRIRRRPPRLPRPRPRPVCPPRP | 0.32
13 | RRIRVRPPRLPRPRPRPCEAPRP | 0.0719
14 | RRIRRRPPRLPRPRPRPNQDPRP | 0.125
15 | RRIRMRPPRLPRPRPRPLNYPRP | -0.124
16 | RRIRYRPPRLPRPRPRPWIRPRP | -0.371
17 | RRIRERPPRLPRPRPRPPAEPRP | 0.758
18 | RRIRYRPPRLPRPRPRPSHWPRP | -0.225
19 | RRIRMRPPRLPRPRPRPFMIPRP | -0.0423
20 | RRIRERPPRLPRPRPRPTISPRP | -0.163
21 | RRIRQRPPRLPRPRPRPKKFPRP | -0.097
22 | RRIRCRPPRLPRPRPRPPDIPRP | 0.409
23 | RRIRHRPPRLPRPRPRPLDVPRP | 0.0138
24 | RRIRYRPPRLPRPRPRPTVCPRP | -0.0618
25 | RRIRCRPPRLPRPRPRPIPFPRP | -0.436

Row | Sequence | shrunken log2 fold change
26 | RRIRMRPPRLPRPRPRPCSFPRP | 0.0622
27 | RRIRCRPPRLPRPRPRPLRHPRP | 0.479
28 | RRIRNRPPRLPRPRPRPKRVPRP | 0.148
29 | RRIRIRPPRLPRPRPRPVMQPRP | -0.00187
30 | RRIRSRPPRLPRPRPRPAEGPRP | 0.29
31 | RRIRPRPPRLPRPRPRPKEGPRP | -0.00237
32 | RRIRRRPPRLPRPRPRPTQPPRP | 0.155
33 | RRIRKRPPRLPRPRPRPIFYPRP | -0.0532
34 | RRIRPRPPRLPRPRPRPDWRPRP | 0.321
35 | RRIRCRPPRLPRPRPRPLQGPRP | 0.0488
36 | RRIRCRPPRLPRPRPRPHIKPRP | -0.788
37 | RRIRDRPPRLPRPRPRPRQGPRP | 0.0779
38 | RRIRTRPPRLPRPRPRPGKMPRP | 0.181
39 | RRIRVRPPRLPRPRPRPRNDPRP | -0.00857
40 | RRIRGRPPRLPRPRPRPFATPRP | 2.68
41 | RRIRLRPPRLPRPRPRPSTLPRP | -0.552
42 | RRIRNRPPRLPRPRPRPHMHPRP | -0.582
43 | RRIRVRPPRLPRPRPRPWTVPRP | -0.782
44 | RRIRSRPPRLPRPRPRPNLVPRP | -0.0453
45 | RRIRHRPPRLPRPRPRPVANPRP | -0.0206
46 | RRIRVRPPRLPRPRPRPKYYPRP | -0.921
47 | RRIRFRPPRLPRPRPRPTNTPRP | -0.414
48 | RRIRQRPPRLPRPRPRPHPAPRP | -0.114
49 | RRIRGRPPRLPRPRPRPYWNPRP | -0.39
50 | RRIRRRPPRLPRPRPRPPAYPRP | 0.618

Row | Sequence | shrunken log2 fold change
51 | RRIRRRPPRLPRPRPRPEHHPRP | 0.202
52 | RRIRQRPPRLPRPRPRPGQAPRP | 0.0026
53 | RRIRQRPPRLPRPRPRPKESPRP | 0.0355
54 | RRIRGRPPRLPRPRPRPAQFPRP | 0.199
55 | RRIRYRPPRLPRPRPRPDYYPRP | -0.00141
56 | RRIRRRPPRLPRPRPRPEWKPRP | 0.0796
57 | RRIRARPPRLPRPRPRPSYLPRP | -0.716
58 | RRIRLRPPRLPRPRPRPYLDPRP | 0.0027
59 | RRIRTRPPRLPRPRPRPCVKPRP | 0.0506
60 | RRIRSRPPRLPRPRPRPHHTPRP | -0.625
61 | RRIRFRPPRLPRPRPRPGFHPRP | -0.416
62 | RRIRMRPPRLPRPRPRPFQNPRP | 2.76
63 | RRIRWRPPRLPRPRPRPLHEPRP | 0.148
64 | RRIRRRPPRLPRPRPRPEVVPRP | 0.472
65 | RRIRIRPPRLPRPRPRPQIEPRP | -0.0116
66 | RRIRIRPPRLPRPRPRPCTTPRP | -0.543
67 | RRIRARPPRLPRPRPRPAIEPRP | 0.396
68 | RRIRKRPPRLPRPRPRPNKKPRP | -0.279
69 | RRIRLRPPRLPRPRPRPLQGPRP | -0.0384
70 | RRIRKRPPRLPRPRPRPPTAPRP | 0.742
71 | RRIRRRPPRLPRPRPRPNVHPRP | -0.203
72 | RRIRARPPRLPRPRPRPQSFPRP | -0.121
73 | RRIRFRPPRLPRPRPRPTTEPRP | 0.108
74 | RRIRKRPPRLPRPRPRPEARPRP | 0.429
75 | RRIRFRPPRLPRPRPRPMINPRP | -0.208

Row | Sequence | shrunken log2 fold change
76 | RRIRNRPPRLPRPRPRPNETPRP | -0.0424
77 | RRIRRRPPRLPRPRPRPRCTPRP | 0.0974
78 | RRIRCRPPRLPRPRPRPFYVPRP | -0.825
79 | RRIRLRPPRLPRPRPRPSTMPRP | -0.407
80 | RRIRPRPPRLPRPRPRPDTCPRP | -0.594
81 | RRIRCRPPRLPRPRPRPEWAPRP | 0.292
82 | RRIRERPPRLPRPRPRPKNMPRP | -0.479
83 | RRIRKRPPRLPRPRPRPSDAPRP | -0.0187
84 | RRIRERPPRLPRPRPRPNTVPRP | -0.595
85 | RRIRYRPPRLPRPRPRPMFPPRP | -0.463
86 | RRIRPRPPRLPRPRPRPSNWPRP | -0.184
87 | RRIRKRPPRLPRPRPRPNRCPRP | 0.0393
88 | RRIRVRPPRLPRPRPRPNWFPRP | 0.0817
89 | RRIRWRPPRLPRPRPRPECNPRP | 0.457
90 | RRIRVRPPRLPRPRPRPFAWPRP | 0.384
91 | RRIRYRPPRLPRPRPRPKNRPRP | -0.0456
92 | RRIRERPPRLPRPRPRPYCRPRP | -0.394
93 | RRIRARPPRLPRPRPRPLDTPRP | 0.39
94 | RRIRDRPPRLPRPRPRPDHYPRP | -0.183
95 | RRIRYRPPRLPRPRPRPHMTPRP | -0.845
96 | RRIRKRPPRLPRPRPRPNPLPRP | 0.0246
97 | RRIRERPPRLPRPRPRPTNSPRP | -0.782
98 | RRIRWRPPRLPRPRPRPTDVPRP | -0.283
99 | RRIRLRPPRLPRPRPRPMNEPRP | -0.00493
100 | RRIRYRPPRLPRPRPRPRAWPRP | -0.214

Row | Sequence | shrunken log2 fold change
101 | RRIRHRPPRLPRPRPRPAQIPRP | 0.276
102 | RRIRWRPPRLPRPRPRPTQCPRP | 0.115
103 | RRIRNRPPRLPRPRPRPQCLPRP | 0.197
104 | RRIRYRPPRLPRPRPRPWAEPRP | 0.0276
105 | RRIRIRPPRLPRPRPRPNPAPRP | 0.0171
106 | RRIRMRPPRLPRPRPRPCKGPRP | -0.0617
107 | RRIRIRPPRLPRPRPRPQIPPRP | -0.216
108 | RRIRERPPRLPRPRPRPIFHPRP | -0.395
109 | RRIRNRPPRLPRPRPRPQAGPRP | -0.128
110 | RRIRSRPPRLPRPRPRPVMYPRP | -0.0786
111 | RRIRCRPPRLPRPRPRPCCQPRP | -0.342
112 | RRIRWRPPRLPRPRPRPPDPPRP | 0.296
113 | RRIRTRPPRLPRPRPRPPTLPRP | 0.0694
114 | RRIRARPPRLPRPRPRPHNSPRP | 1.18
115 | RRIRVRPPRLPRPRPRPWGCPRP | 0.076
116 | RRIRWRPPRLPRPRPRPWNIPRP | -0.0879
117 | RRIRFRPPRLPRPRPRPTFWPRP | -0.0559
118 | RRIRLRPPRLPRPRPRPDVCPRP | 0.0271
119 | RRIRFRPPRLPRPRPRPDCEPRP | 0.175
120 | RRIRIRPPRLPRPRPRPSIYPRP | -0.925
121 | RRIRWRPPRLPRPRPRPRTMPRP | 0.205
122 | RRIRLRPPRLPRPRPRPMMSPRP | -0.00436
123 | RRIRERPPRLPRPRPRPTAMPRP | 0.109
124 | RRIRWRPPRLPRPRPRPDWQPRP | 0.00408
125 | RRIRLRPPRLPRPRPRPVCRPRP | 0.091
